Target: T1, membrane LAG3 (membrane-bound LAG3 expressed on immune cells) (human, UniProt P18627 23-525)
T1 sequence: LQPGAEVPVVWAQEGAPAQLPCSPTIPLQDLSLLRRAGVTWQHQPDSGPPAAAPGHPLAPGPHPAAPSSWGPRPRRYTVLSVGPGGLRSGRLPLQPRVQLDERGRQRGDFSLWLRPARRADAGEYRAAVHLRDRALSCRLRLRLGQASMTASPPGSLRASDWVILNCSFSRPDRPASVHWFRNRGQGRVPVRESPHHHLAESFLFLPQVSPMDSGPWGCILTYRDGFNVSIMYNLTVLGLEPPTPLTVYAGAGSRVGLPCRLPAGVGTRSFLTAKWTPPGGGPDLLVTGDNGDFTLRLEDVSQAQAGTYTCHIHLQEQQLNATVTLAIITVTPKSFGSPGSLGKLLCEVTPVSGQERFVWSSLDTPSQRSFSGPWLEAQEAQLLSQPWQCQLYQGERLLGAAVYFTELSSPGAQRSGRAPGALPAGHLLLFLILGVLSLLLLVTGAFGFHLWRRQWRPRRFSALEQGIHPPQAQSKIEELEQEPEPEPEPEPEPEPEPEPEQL
Experiment: statement in Example 2 (rationale for sLAG3 as target engagement marker); no assay described

B1: anti-LAG3 antibody Ab6 (antibody, human IgG4 S228P, kappa, V domains shown)
VH: QMQLVQSGPEVKKPGTSVKVSCKASGYTFTDYNVDWVRQARGQRLEWIGDINPNDGGTIYAQKFQERVTITVDKSTSTAYMELSSLRSEDTAVYYCARNYRWFGAMDHWGQGTTVTVSS
VL: DIVMTQTPLSLSVTPGQPASISCKASQSLDYEGDSDMNWYLQKPGQPPQLLIYGASNLESGVPDRFSGSGSGTDFTLKISRVEAEDVGVYYCQQSTEDPRTFGGGTKVEIKR
notes: The claims say two heavy and two light chains
- binding result: binds

Reference: patent US20210347889A1 (Merck Sharp & Dohme, published 2021)
